US20240025988A1 (GlaxoSmithKline, published 2024)
Values joined by “and” are separate entries in the source; they are usually repeats but may differ in a detail not shown here. Equal entries are not always repeated.

Columns and labels:
human IL-7 [1] = target: T1, human IL-7 (human, UniProt P13232 26-177); assay: cell-based or functional assay
T1 sequence: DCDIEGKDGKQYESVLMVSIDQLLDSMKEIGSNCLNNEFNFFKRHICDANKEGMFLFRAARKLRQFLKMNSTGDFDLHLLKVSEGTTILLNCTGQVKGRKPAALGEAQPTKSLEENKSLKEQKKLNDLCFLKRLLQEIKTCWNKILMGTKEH

human IL-7 [2] = target: T1, human IL-7; assay: cell-based or functional assay; remark: listed apart in the source
human IL-7 [3] = target: T1, human IL-7; assay: SPR, Biacore 8K, 25 °C, IL-7 as analyte
Source text: (§1) (Table 5). […] (Table 5).

cynomolgus monkey IL-7 [4] = target: T2, cynomolgus monkey IL-7 (cynomolgus monkey, UniProt A0A2K5W745 26-178); assay: SPR, Biacore 8K, 25 °C, IL-7 as analyte
T2 construct: also called cynoIL-7; cynomolgus IL-7
T2 sequence: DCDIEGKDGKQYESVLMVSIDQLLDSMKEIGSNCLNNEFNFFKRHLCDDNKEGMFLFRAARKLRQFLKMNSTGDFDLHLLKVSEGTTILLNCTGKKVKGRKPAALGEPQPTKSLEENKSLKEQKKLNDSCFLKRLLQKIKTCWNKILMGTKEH
Source text: as §1

human IL-7 [5] = target: T1, human IL-7; assay: SPR, Biacore 8K, 37 °C, IL-7 as analyte
Source text: as §1

cynomolgus monkey IL-7 [6] = target: T2, cynomolgus monkey IL-7; assay: SPR, Biacore 8K, 37 °C, IL-7 as analyte
Source text: as §1

cynomolgus monkey IL-7 [7] = target: T2, cynomolgus monkey IL-7; assay: SPR, Biacore 8K, 37 °C (text value; Table 5 prints 73); 37 C; value of the running text
Source text: as §1

human IL-7 [8] = target: T1, human IL-7; assay: SPR, Biacore 8K, 37 °C; geometric mean KD from all experiments, with 85% confidence interval in brackets

B1: DRSPAI-L7B (antibody, human IgG1, kappa, V domains shown)
VH: QVQLVESGGGVVQPGRSLRLSCAASGFTFSSYGVHWVRQAPGKGLEWLAAIWTGGSTDYNSAFSSRFTISRDNSKNTLYLQMNSLRAEDTAVYYCARNGYGESFAYWGQGTLVTVSS
VL: DIQMTQSPSSLSASVGDRVTITCKASESLDHDGDSYINWYQQKPGKAPKLLIYMGSNVEFGVPARFSGSGSGTDFTLTISSLQPEDFATYYCQQSNVDPLTFGGGTKVEIKR
notes: Human IgG1 kappa; also called DRSPAI-171B; DRSPAI-17B
- IL-6 secretion by CD4+ Tmem cells, IC50 (human IL-7 [1]): 0.202 nM
- IL-10 secretion by PBMC (rhIL-7 and anti-CD3), mean IC50 (human IL-7 [1]): 0.207 nM
- TNFα secretion by CD4+ Tmem cells, IC50 (human IL-7 [1]): 0.127 nM
- IFN-γ production by PBMC, IC50 (IL-7 10 ng/ml, anti-CD3) (human IL-7 [2]): 196 pM and 29.4 ng/ml
- IL-17 production by Tmem, IC50 (IL-7 20 ng/ml) (human IL-7 [2]): 40.5 ng/ml and 270 pM
- Teff and Tmem proliferation (CD4+), IC50 (IL-7 10 ng/ml) (human IL-7 [2]): 79.5 ng/ml and 530 pM
- Teff and Tmem proliferation (CD4+), IC50 (IL-7 20 ng/ml) (human IL-7 [2]): 78 ng/ml and 520 pM
- pSTAT5 in CCRF-CEM cells, IC50 (IL-7 0.034 ng/ml, 2 pM) (human IL-7 [2]): < 0.15 ng/ml and < 1 pM
- pSTAT5 in whole blood (CD4+ T cells), median IC50 (IL-7 1 ng/ml) (human IL-7 [2]): 5.1 ng/ml and 34 pM
- Kd (human IL-7 [3]): 0.031 nM and 0.034 nM
- koff (human IL-7 [3]): 0.000206 s⁻¹ and 0.000158 s⁻¹
- kon (human IL-7 [3]): 6.49e+06 M⁻¹ s⁻¹ and 4.65e+06 M⁻¹ s⁻¹
- Kd (cynomolgus monkey IL-7 [4]): 0.053 nM
- koff (cynomolgus monkey IL-7 [4]): 0.00017 s⁻¹
- kon (cynomolgus monkey IL-7 [4]): 3.17e+06 M⁻¹ s⁻¹
- Kd (human IL-7 [5]): 0.069 nM and 0.046 nM and 0.075 nM and 0.087 nM
- koff (human IL-7 [5]): 0.000568 s⁻¹ and 0.000678 s⁻¹ and 0.000826 s⁻¹ and 0.000515 s⁻¹
- kon (human IL-7 [5]): 8.28e+06 M⁻¹ s⁻¹ and 1.47e+07 M⁻¹ s⁻¹ and 1.1e+07 M⁻¹ s⁻¹ and 5.9e+06 M⁻¹ s⁻¹
- Kd (cynomolgus monkey IL-7 [6]): 0.073 nM
- koff (cynomolgus monkey IL-7 [6]): 0.000462 s⁻¹
- kon (cynomolgus monkey IL-7 [6]): 6.17e+06 M⁻¹ s⁻¹
- Kd (cynomolgus monkey IL-7 [7]): ~0.075 nM
- Kd (human IL-7 [8]): 0.0674 nM

B2: A1290 (antibody, human IgG1, kappa, V domains shown)
VH: QVQLVESGGGVVQPGRSLRLSCAASGFTFSSYGLHWVRQAPGKGLEWLAAIWTGGSTDYNAAFISRFTISRDNSKNTLYLQMNSLRAEDTAVYYCARNGYGESFAYWGQGTLVTVSS
VL: DIQMTQSPSSLSASVGDRVTITCKASQSVDDDGDSFINWYQQKPGKAPKLLIYVASNLESGVPARFSGSGSGTDFTLTISSLQPEDFATYYCQQSNEDPLTFGGGTKVEIKR
- pSTAT5 in whole blood (CD4+ T cells), median IC50 (human IL-7 [1]): 18 pM and 0.00275 µg/ml

B3: A1291 (antibody, human IgG1, kappa, V domains shown)
VH: QVQLVESGGGVVQPGRSLRLSCAASGFTFSSYGLHWVRQAPGKGLEWLAAIWTGGSTDYNAEFSSRFTISRDNSKNTLYLQMNSLRAEDTAVYYCARNGYGESFAYWGQGTLVTVSS
VL: DIQMTQSPSSLSASVGDRVTITCKASHSVDDDGDSYMNWYQQKPGKAPKLLIYMASNLESGVPARFSGSGSGTDFTLTISSLQPEDFATYYCQQSNEDPLTFGGGTKVEIKR
- pSTAT5 in whole blood (CD4+ T cells), median IC50 (human IL-7 [1]): 16 pM and 0.00246 µg/ml

B4: A1294 (antibody, human IgG1, kappa, V domains shown)
VH: QVQLVESGGGVVQPGRSLRLSCAASGFTFSTYGVHWVRQAPGKGLEWLAAIWSGGSTDYNVAFSSRFTISRDNSKNTLYLQMNSLRAEDTAVYYCARNGYGESFAYWGQGTLVTVSS
VL: DIQMTQSPSSLSASVGDRVTITCKASQSVDDDGDSYMNWYQQKPGKAPKLLIYMASNLESGVPARFSGSGSGTDFTLTISSLQPEDFATYYCQQSNEDPLTFGGGTKVEIKR
- pSTAT5 in whole blood (CD4+ T cells), median IC50 (human IL-7 [1]): 76 pM and 0.0114 µg/ml
